Results published in PMC10450177.

System: CasDinG WT (Pseudomonas aeruginosa strain 83 (extrachromosomal plasmid))
Experiment: fluorescence anisotropy
Conditions: 100 mM Tris pH 8.0, 1 mM TCEP, 5 mM MgCl2, +/- 1 mM AMP-PNP, 10 nM FAM-ssDNA, CasDinG 0-2.5 uM, room temperature

Sequence: TCGTCACCAGTACAAACTACAACGCCTGTAGCATTCCACA [40 nt ssDNA (oligo 7)]
- Kd: 26 nM
- Kd (no nucleotide, 5 mM Mg2+): 25 nM
